Results reported in US20230287087A1 (MAX PLANCK GESELLSCHAFT ZUR F RDERUNG DER WISSENSCHAFTEN E V, published 2023).
Where “and” joins values, the source holds several entries; their conditions need not be identical. Equal entries are not always repeated.

Columns and labels:
[1] = target: T1, Spike protein of patient-derived SARS-CoV-2 (D614G) (SARS-CoV-2, UniProt P0DTC2 14-1273); assay: cell-based or functional assay
[2] = target: T1, Spike protein of patient-derived …; assay: cell-based or functional assay; remark: listed apart in the source
[3] = target: T1, Spike protein of patient-derived …; assay: cell-based or functional assay; remark: listed apart in the source
[4] = target: T2, SARS-CoV-2 spike receptor-binding domain (RBD), wild type (SARS-CoV-2, UniProt P0DTC2 319-541); assay: BLI, biotinylated VHH on streptavidin sensor, RBD in solution
[5] = target: T3, B.1.617.2/Delta RBD (40592-V08H90, Sino Biologicals) (SARS-CoV-2, UniProt P0DTC2 319-541); assay: as above
[6] = target: quadruple (K417T, L452R, E484K, N501Y) RBD mutant (SARS-CoV-2, UniProt P0DTC2 319-541); assay: method not stated
[7] = target: T2, SARS-CoV-2 spike receptor-binding …; assay: method not stated
[8] = target: Californian RBD mutant (L452R) (SARS-CoV-2, UniProt P0DTC2 319-541); assay: method not stated
[9] = target: T2, SARS-CoV-2 spike receptor-binding …; assay: BLI, biotinylated VHH heterodimer on streptavidin sensor, RBD in solution
[10] = target: T3, B.1.617.2/Delta RBD (40592-V08H90, Sino …); assay: as above

B1: Re6D06 (VHH)
VHH: QVQLVESGGGLVQAGASLRLSCAASGRMFGVYRMGWFRQAPGKEREFVAGISTSVGTTNYADSVKGRFTISRDNAKNTVYLQMNSLKPEDTAVYYCAARDPTTYEYDYWGQGTQVTVSS
Lowest SARS-COV-2-neutralizing concentration [1]: 500 pM
Lowest neutralizing VHH concentration [2]: 1700 pM and 25 µg/liter

B2: Re6A11 (VHH)
VHH: QVQLVESGGGLVQAGGSLRLSCAASGRTFSNDALGWFRQAPRKEREFVAAINWNSGTYYADSVKGRFTISRDNAKNTVYLQMNSLKPEDTAVYSCAAASDYGLPREDFLYDYWGQGTLVTVSS
Lowest neutralizing VHH concentration [2]: 50000 pM and 750 µg/liter

B3: Re9F06 (VHH)
VHH: QVQLVESGGGLVQAGGSLRLSCAASGRTFSNDALGWFRQAPRKEREFVAAINWNSGTYYADSVKGRFTISRDNAKNTVYLQMNSLKPEDTAVYSCAAASDYGLPREDFLYDYWGQGTQVTVSS
Lowest SARS-COV-2-neutralizing concentration [1]: 50000 pM

B4: Re6A11/Re9F06 ColXVIII trimer (VHH)
VHH: QVQLVESGGGLVQAGGSLRLSCAASGRTFSNDALGWFRQAPRKEREFVAAINWNSGTYYADSVKGRFTISRDNAKNTVYLQMNSLKPEDTAVYSCAAASDYGLPREDFLYDYWGQGTLVTVSS
Lowest neutralizing VHH concentration [2]: 170 pM and 4 µg/liter

B5: Re5A08 (VHH)
VHH: QVQLVESGGGLVQAGGSLRLSCTASGHTFTANRMGWFRQAPGKEREFVAAINWGGDSTNYVDSVKGRFTISRDIAKNTVYLQMNSLKPEDTAVYFCAARNHVTGEFDSWGQGTQVTVSS
Lowest neutralizing VHH concentration [2]: 5000 pM and 75 µg/liter

B6: Re6B06 (VHH)
VHH: QVQLVESGGGLVQAGGSLRLSCAASGRAFSSAPMSWFRQAPGKEREFVASVSWSGDSTNYADSVKGRFTISRDNAKNTGYLQMNSLKPEDTAVYYCKRGPYWGQGTQVTVSS
Lowest SARS-COV-2-neutralizing concentration [1]: 170000 pM
viral RNA in supernatants of infected cells (qRT-PCR), fold inhibition [3]: ~300 fold
Lowest neutralizing VHH concentration [2]: 50000 pM and 750 µg/liter

B7: Re7H02 (VHH)
VHH: QVQLVESGGGLVQAGGSLRLSCAASGRAFESAPMSWFRQAPGKEREFVASVSWSGDSTNYADSVKGRFTISRDNAENTGYLQMNSLKPEDTAVYYCKRGPYWGQGTQVTVSS
Lowest SARS-COV-2-neutralizing concentration [1]: 17000 pM
Lowest neutralizing VHH concentration [2]: 17000 pM and 250 µg/liter

B8: Re9H01 (VHH)
VHH: QVQLVESGGGLVQAGDSLRLSCAASGNIFSINAMGWYRQAPGKQRELVAFITSRGSTNYTDSVKGRFTISRDTAKDTVYLQMNSLKPEDTAVYFCRGGYSDYDIYFGSWGQGTQVTVSS
Lowest SARS-COV-2-neutralizing concentration [1]: 170 pM

B9: Re9B09 (VHH)
VHH: QVQLVESGGGLVQPGGSLRLSCAASGFTLDYYAIGWFRQAPGKEREGVSRISSSDGSTDYADSVKGRFTISRDNAKNTVYLQMNSLKPEDTAVYYCATVPGTYYSGNWYYTWHPEAVDYWGKGTQVTVSS
Kd [4]: ≤ 10 pM
Kd [5]: 100 pM
Lowest SARS-COV-2-neutralizing concentration [1]: 170 pM

B10: Re9H03 (VHH)
VHH: QVQLVESGGGLVQPGGSLRLSCAASGFTLDYYAIGWFRQAPGKEREGVSRISSSDGSTDYADSVKGRFTISRDNAKNTVYLQMNSLKPEDTAVYYCATVPGTYYSGNWYYTWHPKAVDYWGKGTLVTVSS
Lowest SARS-COV-2-neutralizing concentration [1]: 170 pM
fold better binding than Re9B09 [6]: 100 fold

B11: Re5F10 (VHH)
VHH: QVQLVESGGGLVQPGGSLRLSCVASGFTFSSFAMGWYRQAPGKECEWVATITITGGSTNYADSVKGRFTISRDNAKNTVYLQMNSLKPEDTAVYYCNPDPGCRRGQGTQVTVSS
Kd [4]: 40 pM
Kd [5]: 40 pM
Lowest SARS-COV-2-neutralizing concentration [1]: 1700 pM
Kd [7]: 30 pM
Kd [6]: 30 pM

B12: Re10B10 (VHH)
VHH: QVQLVESGGGLVQPGGSLRLSCAASGFTLDYYAIGWFRQAPGKEREGVSRIRSSDGSTTYADSVKGRFTISRDNAKNTVYLQMNSLKPEDTAVYYCAYGPLTKYGSSWYWPYEYDYWGQGTQVTVSS
Lowest SARS-COV-2-neutralizing concentration [1]: 50 pM

B13: Re6B02 (VHH)
VHH: QVQLVESGGALVQPGGSLRLSCVASGFTLDYYAIGWFRQAPGKEREGVSRIRSSDGSTNYADSVKGRFTISRDNAKNTVYLQMNSLKPEDTAVYYCAYGPLTKYGSSWYWPYEYDYWGQGTQVTVSS
Lowest SARS-COV-2-neutralizing concentration [1]: 50 pM

B14: Re7B01 (VHH)
VHH: QVQLVESGGGLVQPGGSLRLSCGASGFTLDYYAIGWFRQAPGKEREGVSRIRSNDGSTDYADSVKGRFTISRDNAKNTVYLQMNSLKPEDTAVYYCAYGPLTKYGSSWYWPYEYDYWGQGTQVTVSS
Lowest SARS-COV-2-neutralizing concentration [1]: 50 pM

B15: Re10F10 (VHH)
VHH: QVQLVESGGGLVQPGGSLRLSCAASGFTLDYYAIGWFRQAPGKEREGVSRIRNNDGSTDYADSVKGRFTISRDNAKNTVYLQMNSLKPEDTAVYYCAYGPLTKYGSSWYWPYEYDYWGQGTQVTVSS
Lowest SARS-COV-2-neutralizing concentration [1]: 50 pM

B16: Re9B10 (VHH)
VHH: QVQLVESGGGLVQPGGSLRLSCAASGRMFGVYRMGWFRQAPGKEREFVAGISTSVGTTNYADSVKGRFTISRDNAKNTVYLQMNSLKPEDTAVYYCAARDPTTYEYDYWGQGTQVTVSS
Lowest SARS-COV-2-neutralizing concentration [1]: 500 pM

B17: Re9C08 (VHH)
VHH: QVQLVESGGGLVQPGGSLRLSCAVSGNIFGITAWDWHRQAPGKQRELVAHITSRGDTYYLDSVKGRFAISRDHAKNTLSLQMNSLKPEDTAVYYCYLRTFGPPNDHWGQGTQVTVSS
Lowest SARS-COV-2-neutralizing concentration [1]: 500 pM

B18: Re7E02 (VHH)
VHH: QVQLVESGGGLVQAGGSLRLSCAASGFTLDYYAIGWFRQAPGKEREGVSYIRSSDGTTYYADSVKGRFTISRDNAKNTVYLQMNSLKPEDTAVYYCAADEAYYSELGWESPWGWSYWGQGTQVTVSS
Lowest SARS-COV-2-neutralizing concentration [1]: 500 pM

B19: Re5D06 (VHH)
VHH: QVQLVESGGGLVQPGGSLRLSCAASGITLDYYAIGWFRQAPGKEREGVSRIRSSDGSTNYADSVKGRFTMSRDNAKNTVYLQMNSLKPEDTAVYYCAYGPLTKYGSSWYWPYEYDYWGQGTQVTVSS
Kd [8]: ~400 pM

B20: Re5D06R15 (VHH)
VHH: QVQLVESGGGLVQPGGSLRLSCAASGITLDYYAMGWFREAPGKEREGVARIRNSDGSTNYADSVKGRFTMSRDNAKDTYYLQMNSLEPEDTADYYCAYGPLTKYGSSWYWPYEYDYWGQGTQVTVSS
Kd [4]: ≤ 10 pM
Kd [5]: 30 pM

B21: Re5D06R28 (VHH)
VHH: QVQLVESGGGLVQPGGSLRLSCAISGSTLDYYAMGWFREAPGKEREGVARWRNNDGSTNYADSVKGRFTMSRDNAKDTYYLQMNSLEPEDTADYYCAYGPLTKYGSSWHWPYEYDYWGQGTQVTVSS
Kd [4]: ≤ 10 pM
Kd [5]: 80 pM

B22: Re9F06-SpacerA-Re9B09 (bispecific antibody)
chain: GSQVQLVESGGGLVQAGGSLRLSCAASGRTFSNDALGWFRQAPRKEREFVAAINWNSGTYYADSVKGRFTISRDNAKNTVYLQMNSLKPEDTAVYSCAAASDYGLPREDFLYDYWGQGTQVTVSSTSGEGEGGEGGEGSQVQLVESGGGLVQPGGSLRLSCAASGFTLDYYAIGWFRQAPGKEREGVSRISSSDGSTDYADSVKGRFTISRDNAKNTVYLQMNSLKPEDTAVYYCATVPGTYYSGNWYYTWHPEAVDYWGKGTQVTVSSTS
Kd [9]: ≤ 10 pM
Kd [10]: ≤ 10 pM

B23: Re9F06-SpacerA-Re5D06R28D (bispecific antibody)
chain: GSQVQLVESGGGLVQAGGSLRLSCAASGRTFSNDALGWFRQAPRKEREFVAAINWNSGTYYADSVKGRFTISRDNAKNTVYLQMNSLKPEDTAVYSCAAASDYGLPREDFLYDYWGQGTQVTVSSTSGEGEGGEGGEGSQVQLVESGGGLVQPGGSLRLSCAISGSTLDYYAMGWFREAPGKEREGVARWRNNDGSTNYADSVKGRFTMSRDNAKDTYYLQMNSLEPEDTADYYCAYGPLTKYGDEWHWPYEYDYWGQGTQVTVSSTS
Kd [9]: ≤ 10 pM
Kd [10]: ≤ 10 pM
